Measurements from article PMC7395175.

B1: HA-tagged zDHHC5 [murine] / human PLM expressed in HEK-derived FT-293 cells [human] (parent)
chain 1: MPAESGKRFKPSKYVPVSAAAIFLVGATTLFFAFTCPGLSLNVSPAVPIYNAIMFLFVLANFSMATFMDPGIFPRAEEDEDKEDDFRAPLYKTVEIKGIQVRMKWCATCRFYRPPRCSHCSVCDNCVEEFDHHCPWVNNCIGRRNYRYFFLFLLSLTAHIMGVFGFGLLYVLYHIEELSGVRTAVTMAVMCVAGLFFIPVAGLTGFHVVLVARGRTTNEQVTGKFRGGVNPFTNGCCNNVSRVLCSSPAPRYLGRPKKEKTIVIRPPFLRPEVSDGQITVKIMDNGIQGELRRTKSKGSLEITESQSADAEPPPPPKPDLSRYTGLRTHLSLATNEDSSLLGKDSPPTPTMYKYRPGYSSSSTSAAMPHSSSAKLSRGDSLKEPTSIADSSRHPSYRSEPSLEPESFRSPTFGKSFHFDPLSSGSRSSSLKSAQGTGFELGQLQSIRSEGTTSTSYKSLANQTRNGSLSYDSLLTPSDSPDFESVQAGPEPDPPLGYTSPFLSARLAQQREAERHPRLLPTGPPHREPSPVRYDNLSRHIVASLQEREKLLRQSPPLAGREEEPGLGDSGIQSTPGSGHAPRTSSSSDDSKRSPLSKTPLGRPAVPRFGKPDGLRSRGLGSPEPGTTAPYLGRSISYSSQKAPSGVSETEEVALQPLLTPKDEVQLKTTYSKSNGQPKSIGSASPGPGQPPLSSPTRGGVKKVSGVGGTTYEISV
chain 2: ESPKEHDPFTYDYQSLQIGGLVIAGILFILGILIVLSRRCRCKFNQQQRTGEPDEEEGTFRSSIRRLSTRRR

Variants of: B1
Assay: co-immunoprecipitation (HA IP, Western blot quantified)
Conditions: with human PLM expressed in HEK-derived FT-293 cells [human]; n = 3; read off a plot

response [PLM/HA]	Variant
0.79	chain 1 C236A C237A
